Measurements reported in patent US20150031748A1 (AGENCY FOR SCIENCE TECHNOLOGY AND RESEARCH, published 2015).
Blank lines part the entries; values can stand above or below the binder they belong to.

Legend:
[1] = target: T1, HA-Slug (full length mouse Slug in pDHA, two HA tags) (Mus musculus, UniProt P97469 1-269, 35S-methionine labelled in Example 5); test: GST pull-down of 35S-labeled in vitro translated protein, autoradiography
T1 construct: also called pDHA-Slug; HA tagged Slug; not shown: the two HA tags of the pDHA vector and any vector linker
T1 sequence: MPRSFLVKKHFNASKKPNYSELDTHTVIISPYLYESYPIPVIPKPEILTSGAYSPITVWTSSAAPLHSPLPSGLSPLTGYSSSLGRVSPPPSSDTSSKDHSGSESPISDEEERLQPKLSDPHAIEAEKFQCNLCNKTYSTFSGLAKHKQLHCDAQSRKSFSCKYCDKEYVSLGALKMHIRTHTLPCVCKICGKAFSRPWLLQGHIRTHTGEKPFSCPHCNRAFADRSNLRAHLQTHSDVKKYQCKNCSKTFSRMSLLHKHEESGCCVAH
Experimental: In vitro translation was carried out using Quick Coupled T7 TNT System (Promega, Madson, Wis.) according to the manufacturers protocol. Slug, EX and ZNF cloned into the pDHA vector were in vitro translated and labeled with 35S Methionine. GST, GST-ZO-2 SGA, GST-ZO-2 SH3, GST-20-2 GA, GST-ZO-2 AP and GST-ZO-2 P were produced, purified as described above and were bound to glutathione Sepharose-4B (Amersham Biosciences, Piscataway, N.J., USA) following standard protocols.
Purified GST-fusion proteins were quantified by SDS-PAGE by comparing with known amounts of BSA as standards. 20 μl bed volume of beads carrying 20 μg of GST or the above GST fused ZO-2 truncated proteins were incubated with 10 μl of in vitro translated 35S Methionine labeled, HA tagged Slug, EX or ZNF and topped up with 200 μl of buffer B (PBS with 1% TX-100 PBS, 1 mM EDTA, Complete EDTA free protease inhibitor cocktail (Roche Diagnostics, Indianapolis, Ind.), 1 mM dithiothreitol (DTT), 300 μg/ml Benzamiidine) for 3 h at 4° C. The beads were washed three times with 500 μl of buffer B each time. This was followed by suspension in 30 μl of SDS sample buffer and the analysis of the bound proteins by running through a 15% SDS-PAGE gel and autoradiography, with a 2 to 3 day exposure period. To reciprocate the binding, GST, GST-Slug and GST-ZNF were used as baits. […]

[2] = target: T2, GST-ZO-2SGA (canine ZO-2 amino acids 575-947 in pGEX-6P-1) (Canis lupus familiaris, UniProt Q95168 575-947); test: GST binding assay with GFP-Slug MDCK lysate, anti-Slug blot
T2 construct: also called GST-ZO2 SGA WT
T2 sequence: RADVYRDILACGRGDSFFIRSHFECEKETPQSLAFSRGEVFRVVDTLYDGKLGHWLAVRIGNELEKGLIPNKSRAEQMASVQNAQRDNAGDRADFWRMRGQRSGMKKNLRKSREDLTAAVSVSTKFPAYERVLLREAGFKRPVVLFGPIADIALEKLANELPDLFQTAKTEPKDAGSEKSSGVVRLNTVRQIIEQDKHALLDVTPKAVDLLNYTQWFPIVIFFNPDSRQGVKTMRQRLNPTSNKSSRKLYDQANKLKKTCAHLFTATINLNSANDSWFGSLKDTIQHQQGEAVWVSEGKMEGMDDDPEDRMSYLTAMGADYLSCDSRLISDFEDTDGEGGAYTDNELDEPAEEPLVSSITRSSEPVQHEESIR

[3] = target: T3, human ZO-1 SGA domain (amino acids 490-883) in bait vector pGBKT7 (human, UniProt P04386 1-147; Q07157 490-883); test: yeast two-hybrid, QDO growth and beta-galactosidase activity
T3 construct: Yeast two-hybrid bait
Source text: (§1) All experimental details were according to the manufacturer's protocols. Clones were screened at high stringency with a quadruple (-Trp, -Leu, -His, -Ade) dropout media and then tested for α- and β-galactosidase activity. Library plasmids with the cDNA inserts from positive clones were isolated and sequenced, resulting in the identification of the entire Slug cDNA. The interaction was retested by transforming this Slug cDNA plasmid with bait vectors carrying the human ZO-1 SGA domain (amino acids 490-883), the canine ZO-2 SGA (amino acids 575-945), SH3 (amino acids 575-713), as well as the GA domain (amino acids 714-945) or the canine ZO-3 […] domain (amino acids 450-899). Empty pGBKT7 and a bait plasmid with […] cDNA (Clontech) were used as negative controls.
(§2) The interaction was retested by transforming this Slug cDNA plasmid with bait vectors carrying the human ZO-1SGA domain (amino acids 490-883), the canine ZO-2SGA (amino acids 575-945), SH3 (amino acids 575-713), GA domain (amino acids 714-945), as well as the canine ZO-3SGA domain (amino acids 450-899). Interactions were determined by monitoring the growth of the co-transformed yeasts in on selective media & β-galactosidase activity. […]

[4] = target: T4, canine ZO-3 SGA domain (amino acids 450-899) in bait vector pGBKT7 (canine, UniProt P04386 1-147; O62683 450-898); test: as above
T4 construct: Yeast two-hybrid bait; also called canine ZO-3 SGC domain
Source text: as §1, §2

[5] = target: T5, MYC tagged GA domain of canine ZO-3 (amino acids 606-899), in vitro translated (canine, UniProt O62683 606-898); test: GST pull-down of in vitro translated MYC-tagged GA domain, anti-myc blot
T5 construct: range 606-899; also called MYC-ZO-3GA; ZO-3GA; not shown: MYC tag from pGBKT7
T5 sequence (looked up): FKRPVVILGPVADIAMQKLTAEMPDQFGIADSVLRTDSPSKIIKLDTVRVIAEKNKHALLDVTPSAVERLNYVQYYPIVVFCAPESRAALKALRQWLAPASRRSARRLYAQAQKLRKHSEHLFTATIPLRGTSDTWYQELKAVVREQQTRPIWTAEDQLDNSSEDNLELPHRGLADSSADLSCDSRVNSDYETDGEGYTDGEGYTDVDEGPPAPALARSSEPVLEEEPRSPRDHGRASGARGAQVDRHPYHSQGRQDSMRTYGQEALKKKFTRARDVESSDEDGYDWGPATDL

binding result [1]: no binding
B1: GST-ZO-2P (proline rich domain, canine ZO-2 amino acids 948-1174 in pGEX-6P-1) (other)
chain: KPSPEPRAQMRRAASRDQLRDSSPPPAFKPEPPKAKTQNREESFDISRSHDYKSNPSAVAGNEVSGASTRSCPPPIAAKPSFGRSILKPSTPVPSPESEEVGEGSEEQEGAPKSVLGKVKIFEKMDHKARLQRMQELQEAQNARIEIAQKHPDIYAVPIKTHKPDPGLSQHTSSRPPEPQKGPSRLYQDPRGSYGSDAEEEEYRQQLSEHSKRGYYSQPSRYRDTEL
notes: also called the P; not shown: GST of pGEX-6P-1 and its linker (PreScission site, cloning-site residues)

binding result [2]: binds
B2: GFP-Slug (full length mouse Slug in pEGFP, stably expressed in MDCK cells) (other)
chain: T1 sequence
notes: not shown: EGFP of the pEGFP vector and its linker to Slug

binding result [3]: no binding | binding result [4]: no binding
B3: full-length mouse Slug fused to the GAL4 transactivator domain (library clone 30A) (other, not shown: small tags and cut ends)
chain: T1 sequence
notes: Yeast two-hybrid prey, full length; also called pGADT7-Slug

binding result [5]: no binding
B4: GST-Slug (full length mouse Slug in pGEX4T-1) (other)
chain: T1 sequence
notes: Full length Slug; not shown: GST and the protease-site linker encoded by pGEX4T-1
